Source: the supplement of paper PMC10567573

B1: EPB41L3 (parent)
chain: SMQCKVILLDGSEYTCDVEKRSRG

Variants of: B1
Assay: protein stability index of a GFP-peptide fusion (GPS, HEK-293T) (PSI 1-6); higher = more stable
Settings: c terminus: a fixed tail appended
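Also: lentivirally expressed fusions sorted by FACS into six bins by GFP to DsRed ratio, PSI derived from sequencing read proportions per bin multiplied by bin number.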

Protein stability index of substitutions, site by site:
D10: Y 1.77 | W 1.09 | T 2.75 | S 2.04 | R 2.03 | V 1.62
Y14: T 2.81 | I 2.74 | W 1.9 | D 3.81 | E 3.83 | N 3.7 | L 1.84 | A 3.7 | P 3.66 | V 3.15 | S 4.43 | G 3.69 | C 2.67 | R 3.66 | F 2.21 | K 3.97
S12: H 2.34 | G 2.9 | R 2.99 | M 1.98 | Y 1.78 | A 3.39 | K 3.51 | E 4.38 | T 2.16 | W 1.94 | C 2.14 | P 2.4 | V 2.05 | N 2.91 | D 3.08 | I 2.39 | Q 2.92
D17: T 2.59 | N 2.36 | H 2.51 | I 1.89 | C 2.45 | R 3.07 | Y 1.61 | W 2.06 | P 3.08 | E 2.84 | M 1.1 | S 2.21 | L 3.38 | G 2.34
T15: R 2.45 | M 2.49 | D 3.38 | E 2.45 | V 2.06 | Y 2.58 | P 3.37 | Q 3.19 | L 1.67 | I 2.67 | F 1.63 | H 1.98 | S 3.03
V18: T 3.38 | F 2.1 | D 3.36 | G 2.96 | Y 2.29 | E 3.18 | R 2.92 | M 2.62 | I 2.82 | S 3.69 | L 1.79 | P 3.57 | Q 3.83 | C 2.29 | K 4.16 | N 3.24 | H 2.72 | A 3.5
K20: C 2.15 | H 2.87 | Q 2.6 | T 3.66 | N 3.04 | A 2.06 | L 1.67 | F 1.43 | M 2.04 | D 3.36 | I 1.21 | E 3.26 | P 2.49 | S 2.52
C16: H 3.53 | I 2.77 | V 3.7 | L 2.23 | M 2.41 | S 2.65 | P 2.66 | G 3.19 | E 3.52 | T 2.55 | D 3.44 | K 3.07 | A 2.95 | W 2.01 | F 2.66 | N 2.84
G11: K 2.94 | A 2.58 | E 2.03 | D 2.98 | M 1.73 | V 2.64 | Y 2.51 | I 1.99 | H 3.67 | Q 2.87 | C 2.41 | L 2.75 | T 2.76 | R 2.64 | N 3.26 | W 1.68 | P 3.22
E19: W 2.11 | A 2.17 | C 2.13 | S 2.6 | F 1.19 | P 2.11 | N 2.29 | Q 2.5 | G 2.51 | I 1.93 | D 2.19 | V 2.35 | Y 2.14 | R 2.15 | L 1.99 | K 2.34 | T 1.54 | M 2.14 | H 1.73
E13: T 2.33 | L 2.7 | Q 2.98 | H 2.75 | Y 1.9 | W 2.05 | D 2.37 | S 3.27 | A 2.14 | M 2.09 | C 1.81 | I 1.51 | K 2.41 | N 1.75 | P 3.48 | V 1.86 | G 2.79
